Source: patent US20200164026A1, “Intranasal Delivery of Cell Permeant Therapeutics” (The Trustees of Columbia University in the City of New York, priority 2010, published 2020)

How the values were obtained:
[1] = system: Pen1-XBIR3 (Penetratin1 disulfide-linked to the BIR3 domain from XIAP)
[2] = system: caspase-cleaved tau (caspase-6 substrate); assay: Intranasal Pen1-C6DN prior to 1 hr tMCAo in mice; western blot for caspase-cleaved tau (anti-TauC3); type: in vivo, mouse; conditions: intranasal 1 hr prior to 1 hr tMCAo, 24 hpr
Description: To determine if a direct blockade of caspase-6 would provide protection from ischemia, a Pen1-linked caspase-6 domininat negative (Pen1-C6DN) construct was utilized. Pen1-C6DN was delivered by intransasal bolus to mice 1 hr prior to tMCAo and mice were then subjected to 1 hrMCAo followed by reperfusion. Animals were sacrificed at 24 hpr and core and penumbra regions of brain prepared for Western blotting. As depicted in FIG. 7, protein lysate from the core and penumbra regions of the stroke infarct (24 hpr) was isolated. Ipsilateral (stroked) hemispheres contained abundant caspase-cleaved tau when only treated with vehicle.
Intranasal Pen1-C6DN Prevents Cleavage of Caspase-6 Substrates. Caspase-6 catalytic dominant negative (C6DN; C285A) was isolated and purified as described previously. Denault, J. B. and G. S. Salvesen, Expression, purification, and characterization of caspases. Curr Protoc Protein Sci, 2003. Chapter 21: p. Unit 21 13. Pen1 (Q-Biogene) was mixed at an equimolar ratio with purified C6DN and incubated overnight at 37° C. to generate disulfide-linked Pen1-C6DN. Linkage was assessed by 20% SDS-PAGE and Western blotting with anti-His and anti-Caspase-6 antibodies.
Male C57BL/6 mice (2-3 months old; ≥25 g) were anesthetized using isoflurane (2%) delivered via an anesthesia mask. […]

[3] = biological target: T1, Pen1-C6DN (Penetratin1 disulfide-linked to caspase-6 catalytic dominant negative, C285A)
T1 chain 1: RQIKIWFQNRRMKWKK
T1 chain 2: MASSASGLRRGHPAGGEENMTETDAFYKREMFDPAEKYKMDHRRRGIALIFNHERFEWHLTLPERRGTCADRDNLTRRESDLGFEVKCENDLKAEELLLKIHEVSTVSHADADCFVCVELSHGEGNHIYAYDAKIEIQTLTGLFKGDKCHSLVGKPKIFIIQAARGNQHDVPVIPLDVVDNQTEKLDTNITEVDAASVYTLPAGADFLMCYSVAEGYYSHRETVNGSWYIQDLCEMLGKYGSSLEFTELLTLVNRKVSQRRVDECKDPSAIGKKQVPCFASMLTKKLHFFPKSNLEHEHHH

Sequence of Pen1-XBIR3 (Penetratin1 disulfide-linked to the BIR3 domain from XIAP) (chain, as listed by the source): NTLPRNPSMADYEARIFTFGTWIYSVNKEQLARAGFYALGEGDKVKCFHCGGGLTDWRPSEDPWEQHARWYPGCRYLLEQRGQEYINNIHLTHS

caspase-9 (rat, endogenous in brain or hippocampal neurons)
C1-C6 processes (count of cleaved caspase-6 positive processes), intranasal delivery, 12 hpr [1]: Vehicle-12 hpr: 144.0±28.50, n=3 vs. Pen1-XBIR3-12 hpr: 102.7±23.15, n=3; p=0.3233 | C1-C6 processes (count of cleaved caspase-6 positive processes), intranasal delivery, 24 hpr [1]: Vehicle-24 hpr: 109.7±12.73, n=3 vs. Pen1-XBIR3-24 hpr: 57.33±10.04, n=3; p=0.032 | immunostaining for caspase-9 and cleaved caspase-6 at 24 hpr after convection enhanced delivery to rat striatum [1]: Pent-XBIR3 inhibited appearance of c1-C6 and caspase-9 in cell bodies and processes | immunostaining for cleaved caspase-6 and caspase-9 at 24 hpr (FIG. 3D) [1]: The caspase-9 specific inhibitor, Pen1-XBIR3, blocks the increase in caspase-9 and the induction of c1-C6 observed at 24 hpr

B1: Pen1-C6DN: Caspase-6 catalytic dominant negative (C6DN; C285A) disulfide-linked to Penetratin1 (SEQ ID NO: 11) (conjugate)
peptide: RQIKIWFQNRRMKWKK
chain: MASSASGLRRGHPAGGEENMTETDAFYKREMFDPAEKYKMDHRRRGIALIFNHERFEWHLTLPERRGTCADRDNLTRRESDLGFEVKCENDLKAEELLLKIHEVSTVSHADADCFVCVELSHGEGNHIYAYDAKIEIQTLTGLFKGDKCHSLVGKPKIFIIQAARGNQHDVPVIPLDVVDNQTEKLDTNITEVDAASVYTLPAGADFLMCYSVAEGYYSHRETVNGSWYIQDLCEMLGKYGSSLEFTELLTLVNRKVSQRRVDECKDPSAIGKKQVPCFASMLTKKLHFFPKSNLEHEHHH
caspase-cleaved tau in core and penumbra lysate [2]: reduced cleavage of caspase-cleaved tau

B2: caspase-6 (mouse, endogenous in brain) (protein)
chain: MTETDGFYKSREVFDPAEQYKMDHKRRGVALIFNHERFFWHLTLPERRGTNADRDNLTRRFSDLGFEVKCFNDLRAEELLLKIHEVSTSSHIDADCFICVFLSHGEGNHVYAYDAKIEIQTLTGLFKGDKCQSLVGKPKIFIIQACRGSQHDVPVVPLDMVDHQTDKLDNVTQVDAASVYTLPAGADFLMCYSVAEGYYSHRETVNGSWYIQDLCEMLARYGSSLEFTELLTLVNRKVSQRRVDFCKDPDAIGKKQVPCFASMLTKKLHFCPKPSK
caspase-cleaved tau in mouse brain lysate at 24 hpr (western blot, anti-TauC3) [3]: Pen1-C6DN reduced cleavage of caspase-cleaved tau
